B1: Pistol ribozyme (parent)
chain: GGGUCGUUGUUCCAUAAUCGCGUGGAUAUGGCACGCAAGUUUCUACCGGGCACCGUAAAUGUCCGACUGGAGCCGUUCGGGCGGCUAUAAACAGACCUCAGGCCCGAAGCGUGGCGGCACCUGCCGCCGGUGGUAAAAAAGAUCGGAAGAGCACACGUCU

Variants of: B1
Assay: aptazyme ON/OFF ratio, guanine; higher = stronger switching; co-transcriptional cleavage with and without guanine
With U7A U8G G9C U10A U11G C12A the “aptazyme ON/OFF ratio” value was 1.07.
For U8C G9U U10A U11G C13A, the “aptazyme ON/OFF ratio” value was 1.2.
In the case of U8G G9C U10C U11A C12A C13G, the “aptazyme ON/OFF ratio” value is reported as 1.07.
With U8C G9A U10A U11A C13G the “aptazyme ON/OFF ratio” value was 1.07.
In the case of U8A G9A U10A U11C C12A C13A, the “aptazyme ON/OFF ratio” value is reported as 1.19.
In the case of U8C G9C U10G U11A C12G, the “aptazyme ON/OFF ratio” value is reported as 1.26.
With U7G U8C U10G U11A C12G C13A the “aptazyme ON/OFF ratio” value was 1.09.
For U7G U8G G9U C12A C13G, the “aptazyme ON/OFF ratio” value was 1.1.
With U8G G9A U10A U11A C12A the “aptazyme ON/OFF ratio” value was 1.21.
For U7C G9C U10A C12A C13U, the “aptazyme ON/OFF ratio” value was 1.09.
With U7G U8A G9A U11G C12A C13U the “aptazyme ON/OFF ratio” value was 1.23.
In the case of U8C G9A U11A C12A C13A, the “aptazyme ON/OFF ratio” value is reported as 1.15.
With U7C U8C G9A U10A U11C the “aptazyme ON/OFF ratio” value was 1.21.
For U7A U8G G9A U11A C12G C13G, the “aptazyme ON/OFF ratio” value was 1.33.
With U7G U8C G9A U10A U11A the “aptazyme ON/OFF ratio” value was 3.25.
For U8C U10G U11A C12G, the “aptazyme ON/OFF ratio” value was 1.23.
In the case of U7C U8G U11C C12G C13G, the “aptazyme ON/OFF ratio” value is reported as 1.17.
In the case of U7G U8A G9C U10G U11C, the “aptazyme ON/OFF ratio” value is reported as 1.03.
In the case of U7G U8G G9A U11A C12U, the “aptazyme ON/OFF ratio” value is reported as 1.44.
For U7C U8A G9U U10A U11A C12A C13A, the “aptazyme ON/OFF ratio” value was 1.13.
In the case of U7G U8G G9U U10G U11C C12G C13G, the “aptazyme ON/OFF ratio” value is reported as 1.05.
With U8A G9U U10G U11A the “aptazyme ON/OFF ratio” value was 1.07.
In the case of U7A G9C U10C U11G C13U, the “aptazyme ON/OFF ratio” value is reported as 1.08.
In the case of U7G U8C G9U U10G U11G C12U C13G, the “aptazyme ON/OFF ratio” value is reported as 1.08.
With U7A U8A U10G C12U C13U the “aptazyme ON/OFF ratio” value was 1.42.
With U7A U8A G9C U10A U11G C12A C13G the “aptazyme ON/OFF ratio” value was 1.18.
With U7G U8C U10C U11C C12U C13G the “aptazyme ON/OFF ratio” value was 1.12.
For U7G U8G U11A C12U C13A, the “aptazyme ON/OFF ratio” value was 1.56.
In the case of U7A U8C G9U U10C U11A C12U, the “aptazyme ON/OFF ratio” value is reported as 1.13.
For U7A G9A U10C U11A C13G, the “aptazyme ON/OFF ratio” value was 1.12.
For U7A G9U U11A C12A C13A, the “aptazyme ON/OFF ratio” value was 1.39.
For U7C U8A U10G U11C C12G, the “aptazyme ON/OFF ratio” value was 1.53.
For U8G G9U U11G C12G C13G, the “aptazyme ON/OFF ratio” value was 1.36.
In the case of G9A U11G C12U, the “aptazyme ON/OFF ratio” value is reported as 2.06.
In the case of U7G G9A U10G U11G C13U, the “aptazyme ON/OFF ratio” value is reported as 1.14.
With U7G G9C U10C U11C C12G C13A the “aptazyme ON/OFF ratio” value was 1.08.
For U7C U8G G9C U10C U11A C12U C13A, the “aptazyme ON/OFF ratio” value was 1.08.
With U7A U8G G9C U10C U11C C12A the “aptazyme ON/OFF ratio” value was 1.06.
For U7G U8A U11A C12U C13A, the “aptazyme ON/OFF ratio” value was 1.31.
In the case of U7C U8C G9C U10C U11A C12G C13U, the “aptazyme ON/OFF ratio” value is reported as 1.05.
With U7C U8C U11A C13U the “aptazyme ON/OFF ratio” value was 1.27.
With U7C U8A G9U U10G U11G C12A C13A the “aptazyme ON/OFF ratio” value was 1.07.
With U7A U8C G9A U10A U11A C12G the “aptazyme ON/OFF ratio” value was 1.24.
In the case of U7A G9C U11G C12A C13G, the “aptazyme ON/OFF ratio” value is reported as 1.14.
With U7C G9U U10A C12G C13A the “aptazyme ON/OFF ratio” value was 1.24.
For U8G G9C U10C C13G, the “aptazyme ON/OFF ratio” value was 1.04.
For U7G U8C U10G U11A C13G, the “aptazyme ON/OFF ratio” value was 1.13.
In the case of U7G U8C C13G, the “aptazyme ON/OFF ratio” value is reported as 1.07.
For U7A U8A G9A C13A, the “aptazyme ON/OFF ratio” value was 1.11.
With U11A the “aptazyme ON/OFF ratio” value was 1.84.
In the case of U7C U8G U10C U11C C13G, the “aptazyme ON/OFF ratio” value is reported as 1.09.
For U7G U8C G9C U10C U11C C13G, the “aptazyme ON/OFF ratio” value was 1.36.
With U7A U8C G9C U10C U11A C12G the “aptazyme ON/OFF ratio” value was 1.02.
In the case of U7G G9U U10G U11G C13A, the “aptazyme ON/OFF ratio” value is reported as 1.22.
With U7C U8C G9C C12A C13A the “aptazyme ON/OFF ratio” value was 1.08.
With U7C U8G G9A U10A C12A C13U the “aptazyme ON/OFF ratio” value was 1.19.
In the case of U7C U8A U10G U11A C13A, the “aptazyme ON/OFF ratio” value is reported as 1.11.
For U7A G9U U11A, the “aptazyme ON/OFF ratio” value was 1.27.
With U7G G9U U11G C13A the “aptazyme ON/OFF ratio” value was 1.3.
For U8A G9U U10A U11A C12G C13G, the “aptazyme ON/OFF ratio” value was 1.32.
For U7A G9C U10G U11A C12G, the “aptazyme ON/OFF ratio” value was 1.06.
With U8C G9A U10C U11A C12A C13A the “aptazyme ON/OFF ratio” value was 1.23.
For U7A U8C U10A U11A C12G C13A, the “aptazyme ON/OFF ratio” value was 1.11.
For U7G U10C U11A C12A, the “aptazyme ON/OFF ratio” value was 1.18.
For U8A G9A U10G C13U, the “aptazyme ON/OFF ratio” value was 1.29.
With U7G U8G G9A U10G C13U the “aptazyme ON/OFF ratio” value was 1.27.
In the case of U7A U8C G9A U10C U11C C12A C13U, the “aptazyme ON/OFF ratio” value is reported as 1.04.
With U7G U8G G9C U10C U11A C13A the “aptazyme ON/OFF ratio” value was 1.21.
For U8G G9C U10A U11C C12U, the “aptazyme ON/OFF ratio” value was 1.04.
In the case of U8C U10A C13U, the “aptazyme ON/OFF ratio” value is reported as 1.05.
With U8G G9A U11A C12U the “aptazyme ON/OFF ratio” value was 1.43.
With U7C U8C G9U U10G U11C C12G C13U the “aptazyme ON/OFF ratio” value was 1.1.
With U8A U10G U11G C12G C13A the “aptazyme ON/OFF ratio” value was 1.45.
With U7C U8G U10G C12G the “aptazyme ON/OFF ratio” value was 1.36.
For U7A U8A G9C U11A C12A C13U, the “aptazyme ON/OFF ratio” value was 1.15.
With U7A G9C U10C U11A C12G C13A the “aptazyme ON/OFF ratio” value was 1.16.
For U7G U8A C12A C13G, the “aptazyme ON/OFF ratio” value was 1.14.
In the case of U7C U10A C13U, the “aptazyme ON/OFF ratio” value is reported as 1.04.
For U7A U8A G9C U10G U11G C12U C13U, the “aptazyme ON/OFF ratio” value was 1.18.
In the case of U7A U8A G9C U10C C13A, the “aptazyme ON/OFF ratio” value is reported as 1.04.
For U7G U8G U10C U11C C12U C13A, the “aptazyme ON/OFF ratio” value was 1.29.
For U7A U8G G9C U10C U11A, the “aptazyme ON/OFF ratio” value was 1.03.
In the case of U7G U8A G9U U10A U11G C12G C13G, the “aptazyme ON/OFF ratio” value is reported as 1.15.
For U7A G9C U11G C13U, the “aptazyme ON/OFF ratio” value was 1.25.
For U7G U8G G9C U10A C12A C13U, the “aptazyme ON/OFF ratio” value was 1.04.
For U7G C12U C13U, the “aptazyme ON/OFF ratio” value was 1.36.
In the case of U7G U8G G9C U10C U11C C12G C13U, the “aptazyme ON/OFF ratio” value is reported as 1.04.
For U7C U8C U10C U11A, the “aptazyme ON/OFF ratio” value was 1.9.
With U7C U10G U11A C12G C13G the “aptazyme ON/OFF ratio” value was 1.15.
With U7G U8G U10A C12U C13U the “aptazyme ON/OFF ratio” value was 1.09.
For U7G U8G G9A U10A U11C C12G C13U, the “aptazyme ON/OFF ratio” value was 1.13.
With U7A G9C U10C U11C C12G the “aptazyme ON/OFF ratio” value was 1.03.
In the case of U7G U8A G9A U10C U11G, the “aptazyme ON/OFF ratio” value is reported as 1.24.
For U7A G9C U11C C13U, the “aptazyme ON/OFF ratio” value was 1.02.
For U7G G9A U10G U11A C12U C13A, the “aptazyme ON/OFF ratio” value was 1.1.
For U7G U11A C12U C13G, the “aptazyme ON/OFF ratio” value was 1.14.
In the case of U8A G9U U10G U11A C12A C13U, the “aptazyme ON/OFF ratio” value is reported as 1.47.
In the case of U7C U8C G9U U10G U11A C12U C13U, the “aptazyme ON/OFF ratio” value is reported as 1.21.
In the case of U7C U8G G9A U10C U11G C12G, the “aptazyme ON/OFF ratio” value is reported as 1.22.
In the case of U7C G9A U11G C12G C13A, the “aptazyme ON/OFF ratio” value is reported as 1.19.
In the case of U7C U8C G9U U11G C12G C13A, the “aptazyme ON/OFF ratio” value is reported as 1.09.
In the case of G9A U10C U11C C12U C13U, the “aptazyme ON/OFF ratio” value is reported as 1.06.
With U7C U8A G9C U10G U11C C12G C13G the “aptazyme ON/OFF ratio” value was 1.23.
With U7G G9U U10A U11A the “aptazyme ON/OFF ratio” value was 3.18.
In the case of U8C G9C U10A U11A C12G C13A, the “aptazyme ON/OFF ratio” value is reported as 1.1.
In the case of U8A U10C U11C C12G C13U, the “aptazyme ON/OFF ratio” value is reported as 1.11.
With U8C U10A U11A C12A C13A the “aptazyme ON/OFF ratio” value was 1.19.
With U7C U8A C12G C13A the “aptazyme ON/OFF ratio” value was 1.14.
In the case of U7A U10C U11A C12G C13U, the “aptazyme ON/OFF ratio” value is reported as 1.29.
In the case of U7C U8G G9A U10A U11A C12A, the “aptazyme ON/OFF ratio” value is reported as 1.26.
With U7G U8G G9C U10C C13G the “aptazyme ON/OFF ratio” value was 1.15.
In the case of U7G U8A G9C C12U C13A, the “aptazyme ON/OFF ratio” value is reported as 1.06.
In the case of U7A U8C U10C U11C C13G, the “aptazyme ON/OFF ratio” value is reported as 1.17.
In the case of U8C G9C U11A C12U C13U, the “aptazyme ON/OFF ratio” value is reported as 1.07.
For U8A G9U U10C U11G C12A C13U, the “aptazyme ON/OFF ratio” value was 1.12.
